# Patent publication US20220088180A1
# Target: HLA-A*01:01 (human)
# Experiment: radioligand competition, purified MHC
# Conditions: not given
row,Binder,IC50 [µM]
1,QLTPTWRVY (modifications not checked) [… (SEQ ID NO: 38)],> 70
2,VGYLQPRTF (modifications not checked) [… (SEQ ID NO: 39)],> 70
3,STSAFVETV (modifications not checked) [… (SEQ ID NO: 19)],12.7
4,EIKESVQTF (modifications not checked) [… (SEQ ID NO: 15)],> 70
5,LATNNLVVM (modifications not checked) [… (SEQ ID NO: 16)],> 70
6,KNIDGYFKIY (modifications not checked) [… (SEQ ID NO: 36)],> 70
7,NATNVVIKV (modifications not checked) [… (SEQ ID NO: 37)],> 70
8,DEFVVVTV (modifications not checked) [DEFVVVTV (SEQ ID NO: 11)],> 70
9,IRQEEVQEL (modifications not checked) [… (SEQ ID NO: 31)],> 70
10,SEFSSLPSY (modifications not checked) [… (SEQ ID NO: 27)],39.8
11,APHGHVMVEL (modifications not checked) [… (SEQ ID NO: 14)],> 70

# Same assay, conditions: remark: other sources report otherwise
row,Binder,IC50 [µM]
1,FGDDTVIEV (modifications not checked) [… (SEQ ID NO: 23)],> 70

# Target: HLA-A*02:01 (human)
# Experiment: radioligand competition, purified MHC
# Conditions: not given
row,Binder,IC50 [µM]
1,QLTPTWRVY (modifications not checked) [… (SEQ ID NO: 38)],> 70
2,VGYLQPRTF (modifications not checked) [… (SEQ ID NO: 39)],> 70
3,STSAFVETV (modifications not checked) [… (SEQ ID NO: 19)],0.026
4,EIKESVQTF (modifications not checked) [… (SEQ ID NO: 15)],> 70
5,GPMVLRGLIT (modifications not checked) [… (SEQ ID NO: 6)],2
6,LATNNLVVM (modifications not checked) [… (SEQ ID NO: 16)],> 70
7,GLITLSYHL (modifications not checked) [… (SEQ ID NO: 5)],< 0.0005
8,KNIDGYFKIY (modifications not checked) [… (SEQ ID NO: 36)],11.8
9,YLNSTNVTI (modifications not checked) [… (SEQ ID NO: 24)],0.012
10,DEFVVVTV (modifications not checked) [DEFVVVTV (SEQ ID NO: 11)],13
11,LEDKAFQL (modifications not checked) [LEDKAFQL (SEQ ID NO: 10)],3.89
12,SLEDKAFQL (modifications not checked) [… (SEQ ID NO: 7)],0.02
13,IRQEEVQEL (modifications not checked) [… (SEQ ID NO: 31)],> 70
14,SEFSSLPSY (modifications not checked) [… (SEQ ID NO: 27)],> 70
15,MLLGSMLYM (modifications not checked) [… (SEQ ID NO: 4)],< 0.0005
16,APHGHVMVEL (modifications not checked) [… (SEQ ID NO: 14)],> 70

# Target: HLA-A*26:01 (human)
# Experiment: radioligand competition, purified MHC
# Conditions: not given
row,Binder,IC50 [µM]
1,QLTPTWRVY (modifications not checked) [… (SEQ ID NO: 38)],> 70
2,VGYLQPRTF (modifications not checked) [… (SEQ ID NO: 39)],> 70
3,STSAFVETV (modifications not checked) [… (SEQ ID NO: 19)],12.1
4,EIKESVQTF (modifications not checked) [… (SEQ ID NO: 15)],0.0078
5,GPMVLRGLIT (modifications not checked) [… (SEQ ID NO: 6)],0.884
6,LATNNLVVM (modifications not checked) [… (SEQ ID NO: 16)],> 70
7,GLITLSYHL (modifications not checked) [… (SEQ ID NO: 5)],40.3
8,KNIDGYFKIY (modifications not checked) [… (SEQ ID NO: 36)],> 70
9,NATNVVIKV (modifications not checked) [… (SEQ ID NO: 37)],43.4
10,DEFVVVTV (modifications not checked) [DEFVVVTV (SEQ ID NO: 11)],9.55
11,IRQEEVQEL (modifications not checked) [… (SEQ ID NO: 31)],> 70
12,SEFSSLPSY (modifications not checked) [… (SEQ ID NO: 27)],0.875
13,MLLGSMLYM (modifications not checked) [… (SEQ ID NO: 4)],45.5
14,APHGHVMVEL (modifications not checked) [… (SEQ ID NO: 14)],> 70

# Same assay, conditions: remark: other sources report otherwise
row,Binder,IC50 [µM]
1,FGDDTVIEV (modifications not checked) [… (SEQ ID NO: 23)],> 70

# Target: HLA-B*07:02 (human)
# Experiment: radioligand competition, purified MHC
# Conditions: not given
row,Binder,IC50 [µM]
1,QLTPTWRVY (modifications not checked) [… (SEQ ID NO: 38)],> 70
2,VGYLQPRTF (modifications not checked) [… (SEQ ID NO: 39)],> 70
3,STSAFVETV (modifications not checked) [… (SEQ ID NO: 19)],8.86
4,EIKESVQTF (modifications not checked) [… (SEQ ID NO: 15)],> 70
5,LATNNLVVM (modifications not checked) [… (SEQ ID NO: 16)],0.055
6,GLITLSYHL (modifications not checked) [… (SEQ ID NO: 5)],14.3
7,KNIDGYFKIY (modifications not checked) [… (SEQ ID NO: 36)],> 70
8,NATNVVIKV (modifications not checked) [… (SEQ ID NO: 37)],> 70
9,YLNSTNVTI (modifications not checked) [… (SEQ ID NO: 24)],7.93
10,FGDDTVIEV (modifications not checked) [… (SEQ ID NO: 23)],> 70
11,DEFVVVTV (modifications not checked) [DEFVVVTV (SEQ ID NO: 11)],52.8
12,IRQEEVQEL (modifications not checked) [… (SEQ ID NO: 31)],> 70
13,SEFSSLPSY (modifications not checked) [… (SEQ ID NO: 27)],> 70
14,APHGHVMVEL (modifications not checked) [… (SEQ ID NO: 14)],0.0061

# Target: HLA-B*15:01 (human)
# Experiment: radioligand competition, purified MHC
# Conditions: not given
row,Binder,IC50 [µM]
1,QLTPTWRVY (modifications not checked) [… (SEQ ID NO: 38)],0.011
2,VGYLQPRTF (modifications not checked) [… (SEQ ID NO: 39)],0.777
3,STSAFVETV (modifications not checked) [… (SEQ ID NO: 19)],10.4
4,EIKESVQTF (modifications not checked) [… (SEQ ID NO: 15)],4.93
5,GPMVLRGLIT (modifications not checked) [… (SEQ ID NO: 6)],8.55
6,LATNNLVVM (modifications not checked) [… (SEQ ID NO: 16)],0.315
7,GLITLSYHL (modifications not checked) [… (SEQ ID NO: 5)],1.5
8,KNIDGYFKIY (modifications not checked) [… (SEQ ID NO: 36)],1.45
9,NATNVVIKV (modifications not checked) [… (SEQ ID NO: 37)],> 70
10,YLNSTNVTI (modifications not checked) [… (SEQ ID NO: 24)],0.0012
11,DEFVVVTV (modifications not checked) [DEFVVVTV (SEQ ID NO: 11)],2.05
12,LEDKAFQL (modifications not checked) [LEDKAFQL (SEQ ID NO: 10)],14.7
13,SLEDKAFQL (modifications not checked) [… (SEQ ID NO: 7)],1.58
14,IRQEEVQEL (modifications not checked) [… (SEQ ID NO: 31)],> 70
15,SEFSSLPSY (modifications not checked) [… (SEQ ID NO: 27)],0.0069
16,HADQLTPTW (modifications not checked) [… (SEQ ID NO: 35)],13.4
17,MLLGSMLYM (modifications not checked) [… (SEQ ID NO: 4)],0.0011
18,APHGHVMVEL (modifications not checked) [… (SEQ ID NO: 14)],> 70

# Same assay, conditions: remark: other sources report otherwise
row,Binder,IC50 [µM]
1,FGDDTVIEV (modifications not checked) [… (SEQ ID NO: 23)],2.38

# Target: HLA-B*18:01 (human)
# Experiment: radioligand competition, purified MHC
# Conditions: not given
row,Binder,IC50 [µM]
1,QLTPTWRVY (modifications not checked) [… (SEQ ID NO: 38)],> 70
2,VGYLQPRTF (modifications not checked) [… (SEQ ID NO: 39)],0.707
3,STSAFVETV (modifications not checked) [… (SEQ ID NO: 19)],> 70
4,EIKESVQTF (modifications not checked) [… (SEQ ID NO: 15)],> 70
5,LATNNLVVM (modifications not checked) [… (SEQ ID NO: 16)],> 70
6,KNIDGYFKIY (modifications not checked) [… (SEQ ID NO: 36)],> 70
7,NATNVVIKV (modifications not checked) [… (SEQ ID NO: 37)],> 70
8,DEFVVVTV (modifications not checked) [DEFVVVTV (SEQ ID NO: 11)],< 0.0005
9,LEDKAFQL (modifications not checked) [LEDKAFQL (SEQ ID NO: 10)],0.035
10,IRQEEVQEL (modifications not checked) [… (SEQ ID NO: 31)],> 70
11,SEFSSLPSY (modifications not checked) [… (SEQ ID NO: 27)],0.00037
12,HADQLTPTW (modifications not checked) [… (SEQ ID NO: 35)],3.35
13,APHGHVMVEL (modifications not checked) [… (SEQ ID NO: 14)],> 70

# Same assay, conditions: remark: other sources report otherwise
row,Binder,IC50 [µM]
1,FGDDTVIEV (modifications not checked) [… (SEQ ID NO: 23)],> 70

# Target: HLA-B*44:02 (human)
# Experiment: radioligand competition, purified MHC
# Conditions: not given
row,Binder,IC50 [µM]
1,QLTPTWRVY (modifications not checked) [… (SEQ ID NO: 38)],> 70
2,VGYLQPRTF (modifications not checked) [… (SEQ ID NO: 39)],> 70
3,STSAFVETV (modifications not checked) [… (SEQ ID NO: 19)],> 70
4,EIKESVQTF (modifications not checked) [… (SEQ ID NO: 15)],37.2
5,LATNNLVVM (modifications not checked) [… (SEQ ID NO: 16)],40.2
6,GLITLSYHL (modifications not checked) [… (SEQ ID NO: 5)],26
7,KNIDGYFKIY (modifications not checked) [… (SEQ ID NO: 36)],> 70
8,NATNVVIKV (modifications not checked) [… (SEQ ID NO: 37)],> 70
9,DEFVVVTV (modifications not checked) [DEFVVVTV (SEQ ID NO: 11)],2.79
10,LEDKAFQL (modifications not checked) [LEDKAFQL (SEQ ID NO: 10)],35.4
11,IRQEEVQEL (modifications not checked) [… (SEQ ID NO: 31)],> 70
12,HADQLTPTW (modifications not checked) [… (SEQ ID NO: 35)],5.26
13,MLLGSMLYM (modifications not checked) [… (SEQ ID NO: 4)],18.9
14,APHGHVMVEL (modifications not checked) [… (SEQ ID NO: 14)],> 70

# Same assay, conditions: remark: other sources report otherwise
row,Binder,IC50 [µM]
1,FGDDTVIEV (modifications not checked) [… (SEQ ID NO: 23)],> 70

# Target: HLA-B*44:03 (human)
# Experiment: radioligand competition, purified MHC
# Conditions: not given
row,Binder,IC50 [µM]
1,QLTPTWRVY (modifications not checked) [… (SEQ ID NO: 38)],> 70
2,VGYLQPRTF (modifications not checked) [… (SEQ ID NO: 39)],> 70
3,STSAFVETV (modifications not checked) [… (SEQ ID NO: 19)],> 70
4,EIKESVQTF (modifications not checked) [… (SEQ ID NO: 15)],> 70
5,LATNNLVVM (modifications not checked) [… (SEQ ID NO: 16)],46.5
6,GLITLSYHL (modifications not checked) [… (SEQ ID NO: 5)],24.3
7,KNIDGYFKIY (modifications not checked) [… (SEQ ID NO: 36)],> 70
8,NATNVVIKV (modifications not checked) [… (SEQ ID NO: 37)],8.11
9,YLNSTNVTI (modifications not checked) [… (SEQ ID NO: 24)],49.6
10,DEFVVVTV (modifications not checked) [DEFVVVTV (SEQ ID NO: 11)],1.28
11,LEDKAFQL (modifications not checked) [LEDKAFQL (SEQ ID NO: 10)],0.208
12,IRQEEVQEL (modifications not checked) [… (SEQ ID NO: 31)],> 70
13,HADQLTPTW (modifications not checked) [… (SEQ ID NO: 35)],1.8
14,APHGHVMVEL (modifications not checked) [… (SEQ ID NO: 14)],> 70

# Same assay, conditions: remark: other sources report otherwise
row,Binder,IC50 [µM]
1,FGDDTVIEV (modifications not checked) [… (SEQ ID NO: 23)],> 70

# Target: HLA-B*51:01 (human)
# Experiment: radioligand competition, purified MHC
# Conditions: not given
row,Binder,IC50 [µM]
1,QLTPTWRVY (modifications not checked) [… (SEQ ID NO: 38)],> 70
2,STSAFVETV (modifications not checked) [… (SEQ ID NO: 19)],> 70
3,EIKESVQTF (modifications not checked) [… (SEQ ID NO: 15)],> 70
4,LATNNLVVM (modifications not checked) [… (SEQ ID NO: 16)],32.7
5,KNIDGYFKIY (modifications not checked) [… (SEQ ID NO: 36)],> 70
6,NATNVVIKV (modifications not checked) [… (SEQ ID NO: 37)],0.536
7,YLNSTNVTI (modifications not checked) [… (SEQ ID NO: 24)],3.62
8,DEFVVVTV (modifications not checked) [DEFVVVTV (SEQ ID NO: 11)],12.8
9,IRQEEVQEL (modifications not checked) [… (SEQ ID NO: 31)],> 70
10,SEFSSLPSY (modifications not checked) [… (SEQ ID NO: 27)],> 70
11,MLLGSMLYM (modifications not checked) [… (SEQ ID NO: 4)],7.87
12,APHGHVMVEL (modifications not checked) [… (SEQ ID NO: 14)],> 70

# Same assay, conditions: remark: other sources report otherwise
row,Binder,IC50 [µM]
1,FGDDTVIEV (modifications not checked) [… (SEQ ID NO: 23)],45.7
